Measured values as given in patent US6972324 (Boehringer Ingelheim, dated 2005).
Substitutions are numbered along the chain they refer to.

T1: glutathione-S-transferase fusion protein containing domains v3-v10 of human CD44 (human, UniProt P16070 267-604)
T1 construct: also called GST/CD44v3-v10; recombinant antigen; not shown: glutathione-S-transferase (GST) fusion partner
T1 sequence (looked up): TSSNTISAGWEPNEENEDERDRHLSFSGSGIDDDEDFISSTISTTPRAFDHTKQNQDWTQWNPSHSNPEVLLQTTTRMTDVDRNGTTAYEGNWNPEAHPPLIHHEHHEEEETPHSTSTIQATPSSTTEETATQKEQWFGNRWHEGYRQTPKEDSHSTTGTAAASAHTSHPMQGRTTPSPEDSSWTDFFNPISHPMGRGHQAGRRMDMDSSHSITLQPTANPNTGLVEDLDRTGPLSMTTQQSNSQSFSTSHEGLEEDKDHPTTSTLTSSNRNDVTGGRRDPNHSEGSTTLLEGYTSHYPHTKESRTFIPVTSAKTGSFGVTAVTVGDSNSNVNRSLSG

B1: hMAb BIWA 4 (antibody, human IgG1, kappa, V domains shown)
VH: EVQLVESGGGLVKPGGSLRLSCAASGFTFSSYDMSWVRQAPGKGLEWVSTISSGGSYTYYLDSIKGRFTISRDNAKNSLYLQMNSLRAEDTAVYYCARQGLDYWGRGTLVTVSS
VL: EIVLTQSPATLSLSPGERATLSCSASSSINYIYWYQQKPGQAPRLLIYLTSNLASGVPARFSGSGSGTDFTLTISSLEPEDFAVYYCLQWSSNPLTFGGGTKVEIKR
notes: CDR-grafted humanised version of BIWA 1 without murine framework residues; human IgG1/kappa; in the clinical study as 99mTc- or 186Re-MAG3 conjugate; also called Humanized BIWA 4; bivatuzumab
B2: hMAb BIWA 8 (antibody, human IgG1, kappa, V domains shown)
VH: B1 VH
VL: B1 VL with Y35L, L45I
notes: CDR-grafted humanised version of BIWA 1 with two murine residues in light chain framework 2; human IgG1/kappa; also called Humanized BIWA 8

Experiments:
[1] = molecular target: glutathione-S-transferase fusion protein containing domains v3-v10 of human CD44 (human) (UniProt P16070); experiment: SPR (BIAcore 2000), GST/CD44v3-v10 immobilized on CM5 chip, MAb injected at 8-67 nM
[2] = molecular target: CD44v6 on human tumour cells (human) (UniProt P16070); experiment: immunoreactivity assay, 125I-labelled IgG on fixed UM-SCC-11B cells, linear extrapolation to infinite antigen excess, experiment 2
[3] = molecular target: CD44v6 on human tumour cells (human) (UniProt P16070); experiment: immunoreactivity assay, 125I-labelled IgG on glutaraldehyde-fixed UM-SCC-11B cells, experiment 2
[4] = molecular target: CD44v6 on human tumour cells (human) (UniProt P16070); experiment: competitive cell ELISA on fixed A431 cells against mMAb BIWA 1; IC50 relative to BIWA 2
[5] = molecular target: glutathione-S-transferase fusion protein containing domains v3-v10 of human CD44 (human) (UniProt P16070); experiment: SPR (BIAcore 2000), GST/CD44v3-v10 immobilized on CM5 chip
[6] = molecular target: CD44v6 on human tumour cells (human) (UniProt P16070); experiment: immunoreactivity assay, 186Re-MAG3-labelled MAb on fixed UM-SCC-11B cells
[7] = molecular target: CD44v6 on human tumour cells (human) (UniProt P16070); experiment: immunoreactivity assay, 131I-labelled IgG on glutaraldehyde-fixed UM-SCC-11B cells, experiment 1
[8] = molecular target: CD44v6 on human tumour cells (human) (UniProt P16070); experiment: immunoreactivity assay, 131I-labelled IgG on fixed UM-SCC-11B cells, linear extrapolation to infinite antigen excess, experiment 1
[9] = molecular target: T1, glutathione-S-transferase fusion …; experiment: SPR (BIAcore 2000), GST/CD44v3-v10 immobilized on CM5 chip
Method: (§1) Evaluation of antibody affinity. Measurement of kinetic and affinity constants using recombinant antigen was performed on a BIAcore 2000 system (BIAcore AB, Uppsala, Sweden). A glutathione-S-transferase fusion protein containing domains v3–v10 of human CD44 (GST/CD44v3–v10; 20 μg/ml) was immobilized on a CM5 sensor chip by the amine coupling method according to the manufacturer's instructions, using 10 mM sodium acetate pH 5.0 as coupling buffer. 35 μl of MAb at various concentrations (8–67 nM) in HBS (10 mM HEPES, pH 7.4, 150 mM NaCl, 3.4 mM EDTA, 0.05% BLAcore surfactant P20) were injected over the antigen-coated surface at a flow rate of 5 μL/min. Dissociation of the MAb was assessed for 5 minutes in buffer flow (HBS). Between two analyses, the surface of the chip was regenerated with a single pulse of 15 μl 30 mM HCl. Analysis of the data and calculation of the kinetic constants were performed with BIAcore's BIAevaluation software, version 2.1. Association rates (k_a), dissociation rates (k_d), and dissociation constants (K_d) were assessed for all antibodies.
(§2) In vitro binding characteristics of the CD44v6specific MAbs. The binding affinities of the five MAbs were analyzed using recombinant antigen as well as human tumor cell lines. Kinetic and affinity constants were evaluated by surface plasmon resonance using GST/CD44v3–v10 as immobilized antigen.

[10] = molecular target: CD44v6 on human tumour cells (human) (UniProt P16070); experiment: immunoreactivity assay, 131I-labelled IgG on fixed UM-SCC-11B cells, linear extrapolation to infinite antigen excess, experiment 3
[11] = molecular target: CD44v6 on human tumour cells (human) (UniProt P16070); experiment: immunoreactivity assay, 131I-labelled IgG on glutaraldehyde-fixed UM-SCC-11B cells, experiment 3
[12] = molecular target: CD44v6 on human tumour cells (human) (UniProt P16070); experiment: immunoreactivity assay, 131I-labelled IgG on fixed UM-SCC-11B cells, linear extrapolation to infinite antigen excess, experiment 2
[13] = molecular target: CD44v6 on human tumour cells (human) (UniProt P16070); experiment: immunoreactivity assay, 131I-labelled IgG on glutaraldehyde-fixed UM-SCC-11B cells, experiment 2
[14] = molecular target: CD44v6 on human tumour cells (human) (UniProt P16070); experiment: competitive cell ELISA on fixed A431 cells; inhibition of binding of mMAb BIWA 1, detected with peroxidase-conjugated anti-mouse Fc; unit taken from the concentration axis
[15] = molecular target: T1, glutathione-S-transferase fusion …; experiment: ratio of affinities (SPR on GST/CD44v3-v10, Table 1)
[16] = molecular target: CD44v6 on human tumour cells (human) (UniProt P16070); experiment: immunoreactivity assay of clinical 99mTc-/186Re-MAG3-labelled BIWA 4 batches on fixed UM-SCC 11B cells
[17] = molecular target: T1, glutathione-S-transferase fusion …; experiment: SPR (BIAcore 2000), GST/CD44v3-v10 immobilized on CM5 chip, MAb injected at 8-67 nM
Method: as §1, §2

[18] = molecular target: CD44v6 on human tumour cells (human) (UniProt P16070); experiment: immunoreactivity assay, 125I-labelled IgG on fixed UM-SCC-11B cells, linear extrapolation to infinite antigen excess, experiment 3
[19] = molecular target: CD44v6 on human tumour cells (human) (UniProt P16070); experiment: immunoreactivity assay, 125I-labelled IgG on glutaraldehyde-fixed UM-SCC-11B cells, experiment 3

Molecule	Kd [1] [nM]	koff [1] [s⁻¹]	kon [1] [M⁻¹ s⁻¹]	relative IC50 values [4]	Kd relative to murine BIWA 1 [5] [fold]	immunoreactive fraction [6] [%]	Kd relative to murine BIWA 1 [9] [fold]	IC50 [14] [µg/mL]	Kd [17] [nM]	koff [17] [s⁻¹]	kon [17] [M⁻¹ s⁻¹]	also measured
cMAb BIWA 2 (antibody)	0.24	4.1e-05	170000	1	0.7	75						Binding Extrapolated (%) (immunoreactive fraction) [2]: 79.9%; Binding to 5 × 10^6 cells (%) [3]: 80.5%
mMAb U36 (antibody)	11	0.00017	15000		35	75						Binding to 5 × 10^6 cells (%) [7]: 59.7%; Binding Extrapolated (%) (immunoreactive fraction) [8]: 87.4%
B1				44		75	10.5	8.01	3.4	0.00022	65000	Binding Extrapolated (%) (immunoreactive fraction) [10]: 74.5%; Binding to 5 × 10^6 cells (%) [11]: 77.3%; Binding Extrapolated (%) (immunoreactive fraction) [12]: 82.3%; Binding to 5 × 10^6 cells (%) [13]: 77.4%; fold lower affinity than cMAb BIWA 2 [15]: 14 fold; fold lower affinity than hMAb BIWA 8 [15]: 4 fold; immunoreactive fraction [16]: 80%
B2				2		75	2.6	0.335	0.84	6.3e-05	75000	Binding Extrapolated (%) (immunoreactive fraction) [18]: 92.1%; Binding to 5 × 10^6 cells (%) [19]: 91.8%
